Measured values taken from patent US20120329707A1 (INDIANA UNIVERSITY RESEARCH AND TECHNOLOGY, published 2012).
Numbered stars: 1 amine (or outer) side, 2 acyl side, 3 side chain; on linkers, the order of the positions; unused ones are H or OH. Square brackets hold non-standard residues; d marks the D form. Primed or numbered codes have the meaning given here. Side chains are listed from the residue outwards. Ends that are not written are not given here. * marks the point of attachment. 40K‑TE PEG″ = 40 kDa PEG bound to Cys via thioether made from an iodoacetyl-functionalised PEG; γGlu = O=C(O)[C@H](CCC(=O)[*:2])N[*:1]; Palmitoyl = CCCCCCCCCCCCCCCC(=O)*; Aib = CC(C)(N)C(=O)O

T1: GIP receptor
T1 sequence (P48546 whole entry, species assumed, looked up): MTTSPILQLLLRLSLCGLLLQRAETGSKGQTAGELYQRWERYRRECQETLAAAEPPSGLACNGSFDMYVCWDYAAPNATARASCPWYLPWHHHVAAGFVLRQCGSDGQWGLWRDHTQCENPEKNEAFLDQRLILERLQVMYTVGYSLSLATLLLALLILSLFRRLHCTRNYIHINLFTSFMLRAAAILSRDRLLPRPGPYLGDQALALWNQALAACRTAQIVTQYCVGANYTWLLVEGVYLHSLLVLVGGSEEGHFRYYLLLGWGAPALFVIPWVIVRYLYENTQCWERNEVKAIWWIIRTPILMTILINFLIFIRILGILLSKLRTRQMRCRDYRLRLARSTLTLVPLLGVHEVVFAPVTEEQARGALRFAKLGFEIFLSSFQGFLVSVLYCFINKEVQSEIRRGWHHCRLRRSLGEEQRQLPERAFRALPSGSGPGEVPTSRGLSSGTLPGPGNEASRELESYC


Columns and labels:
Assay in all cases: cell-based or functional assay
[1] = biological target: T1, GIP receptor
[2] = biological target: glucagon receptor
[3] = biological target: GLP-1 receptor

| Binder | EC50 (nM) at GIP receptor [1] | EC50 (nM) at glucagon receptor [2] | EC50 (nM) at GLP-1 receptor [3] |
| --- | --- | --- | --- |
| H[dS]QGTFTSDK([γGlu-Palmitoyl])SKYLDERAAQDFVQWLLKGRG-NH2 [peptide of SEQ ID NO: 27] | 2.12 nM | 0.022 nM | 0.005 nM |
| H[Aib]QGTFTSDK([γGlu-Palmitoyl])SKYLD[Aib]RAAQDFVQWLLDGRG-NH2 (N-terminus assumed; SMILES CCCCCCCCCCCCCCCC(=O)N[C@@H](CCC(=O)NCCCC[C@H](NC(=O)[C@H](CC(=O)O)NC(=O)[C@H](CO)NC(=O)[C@@H](NC(=O)[C@H](Cc1ccccc1)NC(=O)[C@@H](NC(=O)CNC(=O)[C@H](CCC(N)=O)NC(=O)C(C)(C)NC(=O)[C@@H](N)Cc1c[nH]cn1)[C@@H](C)O)[C@@H](C)O)C(=O)N[C@@H](CO)C(=O)N[C@@H](CCCCN)C(=O)N[C@@H](Cc1ccc(O)cc1)C(=O)N[C@@H](CC(C)C)C(=O)N[C@@H](CC(=O)O)C(=O)NC(C)(C)C(=O)N[C@@H](CCCNC(=N)N)C(=O)N[C@@H](C)C(=O)N[C@@H](C)C(=O)N[C@@H](CCC(N)=O)C(=O)N[C@@H](CC(=O)O)C(=O)N[C@@H](Cc1ccccc1)C(=O)N[C@H](C(=O)N[C@@H](CCC(N)=O)C(=O)N[C@@H](Cc1c[nH]c2ccccc12)C(=O)N[C@@H](CC(C)C)C(=O)N[C@@H](CC(C)C)C(=O)N[C@@H](CC(=O)O)C(=O)NCC(=O)N[C@@H](CCCNC(=N)N)C(=O)NCC(N)=O)C(C)C)C(=O)O) [peptide of SEQ ID NO: 30] | 9.06 nM | 0.933 nM | 0.0082 nM |
| H[Aib]QGTFTSDK([γGlu-γGlu-Palmitoyl])SKYLD[Aib]RAAQDFVQWLL[Aib]GRG-NH2 (N-terminus assumed; SMILES CCCCCCCCCCCCCCCC(=O)N[C@@H](CCC(=O)N[C@@H](CCC(=O)NCCCC[C@H](NC(=O)[C@H](CC(=O)O)NC(=O)[C@H](CO)NC(=O)[C@@H](NC(=O)[C@H](Cc1ccccc1)NC(=O)[C@@H](NC(=O)CNC(=O)[C@H](CCC(N)=O)NC(=O)C(C)(C)NC(=O)[C@@H](N)Cc1c[nH]cn1)[C@@H](C)O)[C@@H](C)O)C(=O)N[C@@H](CO)C(=O)N[C@@H](CCCCN)C(=O)N[C@@H](Cc1ccc(O)cc1)C(=O)N[C@@H](CC(C)C)C(=O)N[C@@H](CC(=O)O)C(=O)NC(C)(C)C(=O)N[C@@H](CCCNC(=N)N)C(=O)N[C@@H](C)C(=O)N[C@@H](C)C(=O)N[C@@H](CCC(N)=O)C(=O)N[C@@H](CC(=O)O)C(=O)N[C@@H](Cc1ccccc1)C(=O)N[C@H](C(=O)N[C@@H](CCC(N)=O)C(=O)N[C@@H](Cc1c[nH]c2ccccc12)C(=O)N[C@@H](CC(C)C)C(=O)N[C@@H](CC(C)C)C(=O)NC(C)(C)C(=O)NCC(=O)N[C@@H](CCCNC(=N)N)C(=O)NCC(N)=O)C(C)C)C(=O)O)C(=O)O) [peptide of SEQ ID NO: 29] | 1.65 nM | 0.014 nM | 0.007 nM |
| H[Aib]QGTFTSDK([γGlu-γGlu-Palmitoyl])SKYLD[Aib]RAAQDFVQWLKDGRP-NH2 (N-terminus assumed; SMILES CCCCCCCCCCCCCCCC(=O)N[C@@H](CCC(=O)N[C@@H](CCC(=O)NCCCC[C@H](NC(=O)[C@H](CC(=O)O)NC(=O)[C@H](CO)NC(=O)[C@@H](NC(=O)[C@H](Cc1ccccc1)NC(=O)[C@@H](NC(=O)CNC(=O)[C@H](CCC(N)=O)NC(=O)C(C)(C)NC(=O)[C@@H](N)Cc1c[nH]cn1)[C@@H](C)O)[C@@H](C)O)C(=O)N[C@@H](CO)C(=O)N[C@@H](CCCCN)C(=O)N[C@@H](Cc1ccc(O)cc1)C(=O)N[C@@H](CC(C)C)C(=O)N[C@@H](CC(=O)O)C(=O)NC(C)(C)C(=O)N[C@@H](CCCNC(=N)N)C(=O)N[C@@H](C)C(=O)N[C@@H](C)C(=O)N[C@@H](CCC(N)=O)C(=O)N[C@@H](CC(=O)O)C(=O)N[C@@H](Cc1ccccc1)C(=O)N[C@H](C(=O)N[C@@H](CCC(N)=O)C(=O)N[C@@H](Cc1c[nH]c2ccccc12)C(=O)N[C@@H](CC(C)C)C(=O)N[C@@H](CCCCN)C(=O)N[C@@H](CC(=O)O)C(=O)NCC(=O)N[C@@H](CCCNC(=N)N)C(=O)N1CCC[C@H]1C(N)=O)C(C)C)C(=O)O)C(=O)O) [peptide of SEQ ID NO: 25] | 2.36 nM | 0.035 nM | 0.003 nM |
| H[Aib]QGTFTSDK([γGlu-γGlu-Palmitoyl])SKYLD[Aib]RAAQDFVQWLKDGRG-NH2 (N-terminus assumed; SMILES CCCCCCCCCCCCCCCC(=O)N[C@@H](CCC(=O)N[C@@H](CCC(=O)NCCCC[C@H](NC(=O)[C@H](CC(=O)O)NC(=O)[C@H](CO)NC(=O)[C@@H](NC(=O)[C@H](Cc1ccccc1)NC(=O)[C@@H](NC(=O)CNC(=O)[C@H](CCC(N)=O)NC(=O)C(C)(C)NC(=O)[C@@H](N)Cc1c[nH]cn1)[C@@H](C)O)[C@@H](C)O)C(=O)N[C@@H](CO)C(=O)N[C@@H](CCCCN)C(=O)N[C@@H](Cc1ccc(O)cc1)C(=O)N[C@@H](CC(C)C)C(=O)N[C@@H](CC(=O)O)C(=O)NC(C)(C)C(=O)N[C@@H](CCCNC(=N)N)C(=O)N[C@@H](C)C(=O)N[C@@H](C)C(=O)N[C@@H](CCC(N)=O)C(=O)N[C@@H](CC(=O)O)C(=O)N[C@@H](Cc1ccccc1)C(=O)N[C@H](C(=O)N[C@@H](CCC(N)=O)C(=O)N[C@@H](Cc1c[nH]c2ccccc12)C(=O)N[C@@H](CC(C)C)C(=O)N[C@@H](CCCCN)C(=O)N[C@@H](CC(=O)O)C(=O)NCC(=O)N[C@@H](CCCNC(=N)N)C(=O)NCC(N)=O)C(C)C)C(=O)O)C(=O)O) [peptide of SEQ ID NO: 24] | 1.46 nM | 0.021 nM | 0.004 nM |
| H[Aib]QGTFTSDYSKYLDERRA[Aib]EFVC(40K‑TE PEG″)WLLDT-NH2 [peptide of SEQ ID NO: 14] | 33.7 nM | 0.365 nM | 0.076 nM |
| H[Aib]QGTFTSDK([γGlu-γGlu-Palmitoyl])SKYLD[Aib]RAAQDFVQWLMKGRG-NH2 (N-terminus assumed; SMILES CCCCCCCCCCCCCCCC(=O)N[C@@H](CCC(=O)N[C@@H](CCC(=O)NCCCC[C@H](NC(=O)[C@H](CC(=O)O)NC(=O)[C@H](CO)NC(=O)[C@@H](NC(=O)[C@H](Cc1ccccc1)NC(=O)[C@@H](NC(=O)CNC(=O)[C@H](CCC(N)=O)NC(=O)C(C)(C)NC(=O)[C@@H](N)Cc1c[nH]cn1)[C@@H](C)O)[C@@H](C)O)C(=O)N[C@@H](CO)C(=O)N[C@@H](CCCCN)C(=O)N[C@@H](Cc1ccc(O)cc1)C(=O)N[C@@H](CC(C)C)C(=O)N[C@@H](CC(=O)O)C(=O)NC(C)(C)C(=O)N[C@@H](CCCNC(=N)N)C(=O)N[C@@H](C)C(=O)N[C@@H](C)C(=O)N[C@@H](CCC(N)=O)C(=O)N[C@@H](CC(=O)O)C(=O)N[C@@H](Cc1ccccc1)C(=O)N[C@H](C(=O)N[C@@H](CCC(N)=O)C(=O)N[C@@H](Cc1c[nH]c2ccccc12)C(=O)N[C@@H](CC(C)C)C(=O)N[C@@H](CCSC)C(=O)N[C@@H](CCCCN)C(=O)NCC(=O)N[C@@H](CCCNC(=N)N)C(=O)NCC(N)=O)C(C)C)C(=O)O)C(=O)O) [peptide of SEQ ID NO: 23] | 1.58 nM | 0.023 nM | 0.004 nM |
| H[Aib]QGTFTSDK([γGlu-γGlu-Palmitoyl])SKYLD[Aib]RAAQDFVQWLK[Aib]GRG-NH2 (N-terminus assumed; SMILES CCCCCCCCCCCCCCCC(=O)N[C@@H](CCC(=O)N[C@@H](CCC(=O)NCCCC[C@H](NC(=O)[C@H](CC(=O)O)NC(=O)[C@H](CO)NC(=O)[C@@H](NC(=O)[C@H](Cc1ccccc1)NC(=O)[C@@H](NC(=O)CNC(=O)[C@H](CCC(N)=O)NC(=O)C(C)(C)NC(=O)[C@@H](N)Cc1c[nH]cn1)[C@@H](C)O)[C@@H](C)O)C(=O)N[C@@H](CO)C(=O)N[C@@H](CCCCN)C(=O)N[C@@H](Cc1ccc(O)cc1)C(=O)N[C@@H](CC(C)C)C(=O)N[C@@H](CC(=O)O)C(=O)NC(C)(C)C(=O)N[C@@H](CCCNC(=N)N)C(=O)N[C@@H](C)C(=O)N[C@@H](C)C(=O)N[C@@H](CCC(N)=O)C(=O)N[C@@H](CC(=O)O)C(=O)N[C@@H](Cc1ccccc1)C(=O)N[C@H](C(=O)N[C@@H](CCC(N)=O)C(=O)N[C@@H](Cc1c[nH]c2ccccc12)C(=O)N[C@@H](CC(C)C)C(=O)N[C@@H](CCCCN)C(=O)NC(C)(C)C(=O)NCC(=O)N[C@@H](CCCNC(=N)N)C(=O)NCC(N)=O)C(C)C)C(=O)O)C(=O)O) [peptide of SEQ ID NO: 26] | 3.29 nM | 0.106 nM | 0.004 nM |
| H[dS]QGTFTSDK([γGlu-Palmitoyl])SKYLDERAAQDFVQWLLDGRK-NH2 [peptide of SEQ ID NO: 28] | 2.84 nM | 0.015 nM | 0.003 nM |
